In US20220195015A1 (published 2022) one finds EC50 data, which are given here for 24 molecules.

Residue numbers refer to the chain shown, from its start.

B1: C213 (antibody, V domains shown)
VH: EVQLVESGGGLVKPGGSLRLSCAASGFTFSSYSMNWVRQAPGKGLEWVSSISSSSSYIYYADSVKGRFTISRDNAKNSLYLQMNSLRAEDTAVYYCARVQVGARGWVDYWGQGTLVTVSS
VL: NFMLTQPHSVSESPGKTVTISCTRSSGSIASNYVQWYQQRPGSAPTTVIYEDNERPSGVPDRFSGSIDSSSNSASLTISGLKTEDEADYYCQSYDRINWVFGGGTKLTVL
B2: C217 (antibody, V domains shown)
VH: B1 VH with S50F, S54R
VL: B1 VL with E54Q, R96S
B3: C563 (antibody, V domains shown)
VH: EVQLVESGGGLVKPGGSLRLSCAASGFPFTNAWMSWVRQAPGKGLEWVGHIKDYTDGGTTDYAAPVKGKFTISRDDSKNTLYLHMNSLKTEDTAVYYCSTVGSYYYDSRGPTSDAFDIWGQGTLVTVSS
VL: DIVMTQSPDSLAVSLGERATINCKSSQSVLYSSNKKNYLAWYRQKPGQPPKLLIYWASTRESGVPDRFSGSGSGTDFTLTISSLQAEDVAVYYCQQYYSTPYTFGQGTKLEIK
B4: C080 (antibody, V domains shown)
VH: EVQLVQSGAEVKKPGESLNISCKASGYSFTIYWIAWVRQLPGKGLEWMGIIYPGDSDTRYSPSFQGQVTISADKSISTAYLQWRSLKASDSAVYYCARGVAVDWYFDLWGRGTLVTVSS
VL: QSVLTQPPSVSGAPGQRVTISCAGSSSNIGAGFDVYWYQQLPGTAPKLLIYGNNNRPSGVPDRFSGSKSGTSASLAITGLQAEDEADYYCQSSGSVLSDLYVFGTGTKVTVL
B5: C521 (antibody, V domains shown)
VH: EVQLVESGGGLVRPGGSLTLSCVASGFTVGSNFMSWVRQAPGKGLEWVSLIYNSGGTHYADSVKGRFTISRDRSKNTLYLQMNSLRAEDTAIYYCANHGYYYYMDVWGKGTTVTVS
VL: QSALTQPASVSGSPGQSITISCTGTGSDIGAYNYVSWHQHHPGKAPKLIIYDVSNRPSGVSNRFSGSKSGNTASLTISGLQAEDEADYYCTSYTNTTTPWVFGGGTKVTVL
B6: C073 (antibody, V domains shown)
VH: QLQLQESGPGLVKPSETLSLTCTVSGASIPSSTSYWGWIRQPPGKGLEWIGSIYYTGSTYYNPSLKSRVTISVDTSKNHFSLILSSVTAADTAVYYCARRSITLAGRDCLDFWGQGTLVTVSS
VL: DIQLTQSPSSLSASVGDRLTITCRASQSITTSLNWYQQKPGKAPKLLIYAASSLQSGVPSRFSGSGSGTDFTLAISSLQPEDFATYYCQQSYIPLLTFGGGTKVDIK
B7: C035 (antibody, V domains shown)
VH: EVQLVESGGGLVQPGGSLRLSCAASGFIFSSYWMTWVRQAPGKGLEWVASIKYNGNERNYVDSVKGRFTISRDNARNSLFLQLNNLGAEDTAVYYCARQPESTIWYYFDYWGQGTLVTVSS
VL: SYELTQPPSVSVSPGQTARVTCSGHALPDQYTYWYQQRPGRAPVLVIYVNNQRPSGIPDRFSATTSGTTVTLTISGVQAEDEADYYCQSADSSGSYVVFGGGTKLTVL
B8: C094 (antibody, V domains shown)
VH: QVQLQESGPGLVKPSETLSLTCNVSGVSISTDYWSWIRQPPGKGLEWIGYIYYSGNTKDYNPSLKSRVTISVDTSKNQFSLMLSSVTAADTAVYYCARHYDILTSLSWFDPWGQGTLVTVSS
VL: QSVLTQPPSVSAAPGQKVTISCSITNSNLGNIYVSWYQQLPGTAPKLLIYGNNKRPSGIPDRFSGSKSGTSATLGITGLQTGDEAHYYCGTWDSSLSANWVFGGGTKLTVL
B9: C091 (antibody, V domains shown)
VH: QVQLVQSGAEVKKPGSSVKVSCKASGGTFSSYTISWVRQAPGQGLEWMGRIIPILGIANYAQKFQGRVTITADKSTSTAYMELSSLRSEDTAVYYCARDSGYSGYGSTYYMDVWGKGTTVTVSS
VL: QSVLTQPPSVSGAPGQRVTISCTGSSSNIGAGYDVHWYQQLPGTAPKLLIYGNSNRPSGVPDRFSGSKSGTSASLAITGLQAEDEADYYCQSYDSSLSGSVFGTVTKVTVL
B10: C092 (antibody, V domains shown)
VH: B9 VH with T28S, S30T, S31N, Y32H, T33F, I57T, K63N, T69M, I70M
VL: B9 VL with S26N, T44A, S54N, G70D, A82V, G99D, T104S, V105G
B11: C564 (antibody, V domains shown)
VH: EVQLLESGGGLVQPGTSLRLSCAASGFTFSSYAMSWVRQAPGKGLEWVSAISSSGGSTYYADSVKGRFTISRDNSKNTLYLHMNSLRAEDTAVYYCATERIAVAGTRMYNWFDPWGQGTLVTVSS
VL: DIQMTQSPSSLSASVGDRVTLTCRASQSISSYLNWYQQKPGKAPNLLIYAASSLQSGVPSRFSGSGSGTDFTLTISSLQPEDFATYYCQQSYSAPPWTFGQGTKVEIK
B12: C077 (antibody, V domains shown)
VH: QVQLVQSGAEVKKPGASVKVSCKASGYTFTSYAMHWVRQAPGQRLEWMGWINTDNGNTKYSQKFQGRVTITRDTSASTAYMELSSLRSEDTAVYYCAREGALTNWFDPWGQGTLVTVSS
VL: SYELTQPPSVSVAPGQTARIPCGGNNIGSKSVHWYQQKPGQAPVLVVYDDSDRPSGIPERFSGSNSGNTATLTISRVEAGDEADYYCQVWDSSSDLHVVFGGGTKLTVL
B13: C504 (antibody, V domains shown)
VH: QVQLQESGPGLVKPSETLSLTCTVSGGSISSSYWNWIRQSPGKGLEWIGYIYYDGYTTFNPSLKSRVTISVDTSKNQFSLKLSSVTAADTAFYYCAAGLKGRSSSWYEYWGQGTLVTVSS
VL: DIQMTQSPSSLSASVGDRVTITCRASQSISSYLNWYQQKPGKAPKLLIYATSSLQSGVPSRFSGSGSGTDFTLTITSLQPEDFATYYCQQTYSSPHTFGQGTKLEIK
B14: C547 (antibody, V domains shown)
VH: QVQLVESGGGVVQPGRSLRLSCAASGFTFSSYGMHWVRQAPGKGLEWVAVISYDGSNKYYADSVKGRFTISRDNSKNTLYLQMNSLRAEDTAVYYCAKDTPGGDDILTGWGLYGMDVWGQGTTVTVSS
VL: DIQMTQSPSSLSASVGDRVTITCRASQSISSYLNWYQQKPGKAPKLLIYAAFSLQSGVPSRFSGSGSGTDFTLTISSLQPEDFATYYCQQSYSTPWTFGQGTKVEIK
B15: C543 (antibody, V domains shown)
VH: B14 VH with A23T, S31T, Y32A, Y59D, N77S, A88P, L107M
VL: B13 VL with Q37H, T51A, S52I, S67F, T76S, T85I, T91S, S94T, H96W, L104V
B16: C539 (antibody, V domains shown)
VH: EVQLVESGGGLVQPGRSLRLSCAASGFTFDDYALHWVRQAPGKGLEWVSGISWNGDSIGYADSVKGRFTISRDNAKNSLSLQMNSLTAEDTALYYCAKGVEYSSSSNCDYWGQGTLVTVSS
VL: DIQMTQSPSSVSASVGDRVTITCRASQDISSWLAWYQQKPGKAPKLLISLASGLQSGVPSRFSGSGSETDFTLTISSLQPEDFATYYCQQTNSFPLTFGGGTKVEI
B17: C503 (antibody, V domains shown)
VH: QVQLQESGPGLVQPSGTLSLSCTVTGGSISSNNWWSWVRQSPVKGLEWIGEIYHNGNINYNPSLKSRVTMSIDKSKNHFSLKLSSVTAADTAVYYCARGDVLDWFDPWGQGTLVTVS
VL: QSALTQPASVSGSPGQSITFSCTGTSSDVGAYNYISWYQQHPGKAPKLMIYDVNNRPSGVSRRFSGSKSGNTASLTISGLQSEDEADYFCSSYAGNSTVRFGGGTKLTVL
B18: C507 (antibody, V domains shown)
VH: EVQLVESGGGVVQPGRSLRLSCAASGFTFSSYAIHWVRQAPGKGLEWVAVISFDGSNKYYRDSVKGRFTISRDNGKNTLYLQMNSLRAEDTAVYYCAKAALGYCTNGVCYCDNWGQGTLVTVSS
VL: NFMLTQPHSVSESPGKTVTISCTGSSGSIASNYVQWYQQRPGSAPTTVIYEDNQRPSGVPDRFSGSIDSSSNSASLSISGLKTEDEADYYCQSYDINSLWVFGGGTRLTVL
B19: C505 (antibody, V domains shown)
VH: EVQLLESGGGLVQPGGSLRLSCADSGFSFSTYGMSWVRQAPGKGLEWVSTISGSGDNTYHADSVKGRFTISRDNSKNTLYLQMNSLRAEDTAVYYCAKNIAEMSTFDDYFYYYGMDVWGQGTTVTVSS
VL: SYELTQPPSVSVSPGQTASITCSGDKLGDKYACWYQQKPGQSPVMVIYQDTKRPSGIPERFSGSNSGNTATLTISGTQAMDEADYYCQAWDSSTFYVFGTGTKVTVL
B20: C598 (antibody, V domains shown)
VH: QVQLVQSGPEVKKPGTSVKVSCKASGFTFSSSAVQWVRQARGQRLEWIGWIVVGSGNTNYAQKFQERVTITRDMSTSTAYMELSSLRSEDTAVFYCAAPYCNVTTCFDGFNIWGRGTMVTVSS
VL: EIVLTQSPGTLSLSPGERATLSCRASQSVRSSYFAWYQQKPGQAPRLLIYAASSRATGIPDRFSGSGSGTDFTLTISRLEPEDFALYYCQQYGSSPWTFGQGTKVEIK
B21: C540 (antibody, V domains shown)
VH: EVQLVESGGGLVQPGGSLRLSCAASGFTFRNYDMHWVRQVAGKGLEWVSAIGTSGDTYYPDSVKGRFTISRENAKNSVYLQMNNLRAGDTAVYFCVRDREISGWTGWYFDLWGRGTLVTVSS
VL: DIQMTQSPSSLSASVGDRVTITCRASQTIHNYLNWYQQIPGKAPRLLIYATNTLQSGVPSRFSGSGSGTDFTLTITGLQPEDFATYYCQQSYSTPPITFGQGTRLEIK
B22: C510 (antibody, V domains shown)
VH: QVQLQQWGAGLLKPSETLSRTCAVYGGSFSGYYWSWFRQSPGKGLEWIGEINHSGSTNYNPSLKNRVTISVDTSKNQFSLMLSSVTAADTAVYYCARGGFGVVINYYYSGMDVWGRGTTVTVSS
VL: not shown
B23: C506 (antibody, V domains shown)
VH: EVQLVESGGGLVQPGGSLRLSCAASGFTFSSYDMHWVRQGTGKGLEWVSVIGTAGDAYYPGSVKGRFTISRENAKNSLYLQMNSLRAGDTAVYYCARMVYDSSGFKGYFDLWGRGTLVTVSS
VL: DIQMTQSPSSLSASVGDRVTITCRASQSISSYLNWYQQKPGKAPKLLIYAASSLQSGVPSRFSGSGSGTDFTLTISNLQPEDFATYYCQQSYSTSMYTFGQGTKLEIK
B24: C509 (antibody, V domains shown)
VH: QVQLQESGPGLVKPSGTLSLTCAVSGGSISSSNWWSWVRQPPGKGLEWIGEIYNSGSTNYNPSLKSRVTILVDKSKNQFSLKLSSVTAADTAVYYCAGSYSNYIGGVWFDPWGQGTLVTVSS
VL: EIVLTQSPATLSLSPGERATLSCRASQSVSTYLAWYQQKPGQAPRLLIYDASNRATGIPARFSGSGSGTDFTLTISSLEPEDFAVYYCQQRNNWLTFGGGTKVEIK

The first assay deals with SARS-CoV-2 RBD (wild type) (SARS-CoV-2, UniProt P0DTC2 319-539). As to the kind of experiment: ELISA on coated RBD. For orientation: In an ELISA, binding on a coated surface is turned into a signal by an enzyme label.
In turn, B1 returned an EC50 of 2.02 ng/mL.

Turning to B2, the EC50 stood at 2.28 ng/mL. Same read-out and setting: for B3 the value was 1.19 ng/mL; for B4, 1.97 ng/mL; for B5, 6.9 ng/mL.

Turning to B6, the response was half-maximal at 20.6 ng/mL (EC50).

As for B7, it took 15.2 ng/mL to reach a half-maximal effect (EC50). In turn, B8 yielded an EC50 of 1.67 ng/mL. Molecule B9 displayed an EC50 of 89.5 ng/mL.

Regarding B10, the EC50 was determined as 7.07 ng/mL.

Molecule B11 returned an EC50 of 14.6 ng/mL. Still for that read-out and setting: under B12 stands 45.9 ng/mL.

Another assay has as its target SARS-CoV-2 spike receptor binding domain (RBD), S protein residues 319-539 (SARS-CoV-2, UniProt P0DTC2 319-539). Nature of the assay: ELISA on coated RBD.
Turning to B13, the EC50 was found to be 6.55 ng/mL. The same measure, in the same setting: for B14 the value was 1.78 ng/mL; for B15, 1.28 ng/mL; for B16, 1.3 ng/mL. On the same count and under the same terms, under B17 stands 6.48 ng/mL. Same read-out and setting: under B18 stands 5.6 ng/mL; under B19, 9.08 ng/mL; under B20, 3.78 ng/mL. Regarding B21, the EC50 was found to be 2.9 ng/mL. The same measure, in the same setting: under B22 stands 5.94 ng/mL; under B23, 16 ng/mL; under B24, 4.44 ng/mL.

What is called EC50 is the concentration that produces a half-maximal response. Low values mean an effect from little substance, high ones a need for much substance.
